The text below walks through data of PMC11831279.

In assay [1] the target is PEDV spike ectodomain (S-ECD, amino acids 1 to 1325) fused with a T4 foldon at the C-terminus (porcine epidemic diarrhea virus (strain dndz) | bacteriophage T4 (printed as T4)). Put plainly: SEC. (In general: In gel filtration, larger molecules generally elute earlier.)
Assay [2] shares this target. The assay is described as follows: transmission electron microscopy; TEM of the purified S protein.

As for “PEDV spike ectodomain (S-ECD, amino acids 1 to 1325) fused with a T4 foldon at the C-terminus (domain or fragment)”, the stoichiometry N in assay [1] and in assay [2] was 3 each time.

As a reminder, the stoichiometry N is the number of molecules, sites or subunits per partner or assembly.
